Assay results reported in patent US20030068675, “Position dependent recognition of GNN nucleotide triplets by zinc fingers” (published 2003).

What was measured:
Experiment in all cases: EMSA
Details in all cases: tags: MBP fusion
ZFP SBS#706 = target: T1, ZFP SBS#706 (synthetic, UniProt P08047)
T1 chain: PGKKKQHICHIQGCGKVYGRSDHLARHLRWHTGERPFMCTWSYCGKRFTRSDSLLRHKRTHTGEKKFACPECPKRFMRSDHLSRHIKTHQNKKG
Method in brief: (§1)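 Purified ZFP was titrated against labeled double-stranded target (1 nM or lower, at least 10-fold below expected Kd) carrying the natural binding site with flanks. Binding buffer was 10 mM Tris pH 7.5, 100 mM KCl, 1 mM MgCl2, 0.1 mM ZnCl2, 5 mM DTT, 10% glycerol, 0.02% BSA, with equilibration for at least 45 min. Bound and free target were separated on a 10% polyacrylamide gel.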

ZFP SBS#705 = target: T2, ZFP SBS#705 (synthetic, UniProt P08047)
T2 chain: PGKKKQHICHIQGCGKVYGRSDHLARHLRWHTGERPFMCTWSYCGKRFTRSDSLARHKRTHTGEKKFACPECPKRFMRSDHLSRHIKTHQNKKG
Method in brief: as §1

ZFP SBS#425 = ZFP SBS#425 (synthetic)
Method in brief: as §1

ZFP SBS#426 = ZFP SBS#426 (synthetic)
Method in brief: as §1

ZFP SBS#565 = ZFP SBS#565 (synthetic)
Method in brief: as §1

ZFP SBS#424 = ZFP SBS#424 (synthetic)
Method in brief: as §1

ZFP SBS#724 = target: T3, ZFP SBS#724 (synthetic)
T3 chain: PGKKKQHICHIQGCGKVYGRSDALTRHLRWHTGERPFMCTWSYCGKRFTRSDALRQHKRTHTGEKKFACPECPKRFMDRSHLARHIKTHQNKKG
Method in brief: as §1

ZFP SBS#719 = target: T4, ZFP SBS#719 (synthetic)
T4 chain: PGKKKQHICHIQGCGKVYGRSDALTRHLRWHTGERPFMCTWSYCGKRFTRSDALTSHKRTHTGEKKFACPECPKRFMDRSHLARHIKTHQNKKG
Method in brief: as §1

ZFP SBS#714 = target: T5, ZFP SBS#714 (synthetic)
T5 chain: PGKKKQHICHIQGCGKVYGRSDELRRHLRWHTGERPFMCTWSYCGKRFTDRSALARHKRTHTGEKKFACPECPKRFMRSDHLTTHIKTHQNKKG
Method in brief: as §1

ZFP SBS#715 = target: T6, ZFP SBS#715 (synthetic)
T6 chain: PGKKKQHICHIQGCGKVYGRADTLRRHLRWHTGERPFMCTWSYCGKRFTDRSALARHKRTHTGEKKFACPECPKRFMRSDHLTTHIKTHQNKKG
Method in brief: as §1

ZFP SBS#698 = target: T7, ZFP SBS#698 (synthetic)
T7 chain: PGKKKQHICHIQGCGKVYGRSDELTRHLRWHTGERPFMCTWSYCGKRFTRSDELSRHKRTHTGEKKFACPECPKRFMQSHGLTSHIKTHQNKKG
Method in brief: as §1

ZFP SBS#697 = target: T8, ZFP SBS#697 (synthetic)
T8 chain: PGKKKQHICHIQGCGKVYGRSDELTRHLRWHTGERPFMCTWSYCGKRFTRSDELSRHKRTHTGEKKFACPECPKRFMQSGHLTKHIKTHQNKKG
Method in brief: as §1

ZFP SBS#722 = target: T9, ZFP SBS#722 (synthetic)
T9 chain: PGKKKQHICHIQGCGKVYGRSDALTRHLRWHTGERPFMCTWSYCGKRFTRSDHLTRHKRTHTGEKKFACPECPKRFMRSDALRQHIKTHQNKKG
Method in brief: as §1

ZFP SBS#731 = ZFP SBS#731 (synthetic)
Method in brief: as §1

ZFP SBS#720 = target: T10, ZFP SBS#720 (synthetic)
T10 chain: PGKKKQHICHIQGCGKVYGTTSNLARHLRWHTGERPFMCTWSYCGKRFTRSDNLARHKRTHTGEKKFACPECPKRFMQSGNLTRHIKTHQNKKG
Method in brief: as §1

ZFP SBS#726 = ZFP SBS#726 (synthetic)
Method in brief: as §1

ZFP SBS#700 = ZFP SBS#700 (synthetic)
Method in brief: as §1

ZFP SBS#699 = ZFP SBS#699 (synthetic)
Method in brief: as §1

ZFP SBS#695 = target: T11, ZFP SBS#695 (synthetic)
T11 chain: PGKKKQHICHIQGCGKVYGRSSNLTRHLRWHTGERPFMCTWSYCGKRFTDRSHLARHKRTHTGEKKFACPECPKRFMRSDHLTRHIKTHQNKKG
Method in brief: as §1

ZFP SBS#708 = target: T12, ZFP SBS#708 (synthetic)
T12 chain: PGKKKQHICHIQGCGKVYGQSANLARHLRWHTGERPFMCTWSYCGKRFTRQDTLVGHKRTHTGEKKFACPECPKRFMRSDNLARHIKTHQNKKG
Method in brief: as §1

ZFP SBS#709 = target: T13, ZFP SBS#709 (synthetic)
T13 chain: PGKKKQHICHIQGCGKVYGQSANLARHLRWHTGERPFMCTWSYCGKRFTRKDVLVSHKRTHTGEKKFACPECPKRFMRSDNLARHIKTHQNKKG
Method in brief: as §1

ZFP SBS#710 = ZFP SBS#710 (synthetic)
Method in brief: as §1

ZFP SBS#603 = ZFP SBS#603 (synthetic)
Method in brief: as §1

ZFP SBS#711 = target: T14, ZFP SBS#711 (synthetic)
T14 chain: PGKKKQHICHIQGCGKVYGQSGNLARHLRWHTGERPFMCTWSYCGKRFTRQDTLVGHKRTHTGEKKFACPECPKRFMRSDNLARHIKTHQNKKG
Method in brief: as §1

ZFP SBS#602 = target: T15, ZFP SBS#602 (synthetic)
T15 chain: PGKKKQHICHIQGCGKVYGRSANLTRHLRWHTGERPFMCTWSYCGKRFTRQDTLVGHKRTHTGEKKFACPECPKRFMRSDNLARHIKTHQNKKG
Method in brief: as §1

ZFP SBS#600 = ZFP SBS#600 (synthetic)
Method in brief: as §1

ZFP SBS#601 = target: T16, ZFP SBS#601 (synthetic)
T16 chain: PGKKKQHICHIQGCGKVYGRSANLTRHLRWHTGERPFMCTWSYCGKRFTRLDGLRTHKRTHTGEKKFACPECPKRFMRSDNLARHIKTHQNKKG
Method in brief: as §1

ZFP SBS#702 = target: T17, ZFP SBS#702 (synthetic)
T17 chain: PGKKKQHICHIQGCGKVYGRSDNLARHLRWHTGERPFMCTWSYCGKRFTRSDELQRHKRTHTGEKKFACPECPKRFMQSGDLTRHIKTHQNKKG
Method in brief: as §1

ZFP SBS#701 = ZFP SBS#701 (synthetic)
Method in brief: as §1

ZFP SBS#725 = ZFP SBS#725 (synthetic)
Method in brief: as §1

ZFP SBS#374 = ZFP SBS#374 (synthetic)
Method in brief: as §1

ZFP SBS#427 = ZFP SBS#427 (synthetic)
Method in brief: as §1

ZFP SBS#717 = ZFP SBS#717 (synthetic)
Method in brief: as §1

ZFP SBS#718 = target: T18, ZFP SBS#718 (synthetic)
T18 chain: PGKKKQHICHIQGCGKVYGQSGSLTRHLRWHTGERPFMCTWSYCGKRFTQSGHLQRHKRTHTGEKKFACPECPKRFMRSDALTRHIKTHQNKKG
Method in brief: as §1

ZFP SBS#716 = target: T19, ZFP SBS#716 (synthetic)
T19 chain: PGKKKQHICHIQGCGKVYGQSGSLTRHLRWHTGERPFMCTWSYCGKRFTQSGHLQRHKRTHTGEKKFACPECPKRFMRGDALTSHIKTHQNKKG
Method in brief: as §1

ZFP SBS#694 = target: T20, ZFP SBS#694 (synthetic)
T20 chain: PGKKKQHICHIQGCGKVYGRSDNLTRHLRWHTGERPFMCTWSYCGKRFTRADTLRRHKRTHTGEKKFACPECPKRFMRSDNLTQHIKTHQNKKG
Method in brief: as §1

ZFP SBS#689 = target: T21, ZFP SBS#689 (synthetic)
T21 chain: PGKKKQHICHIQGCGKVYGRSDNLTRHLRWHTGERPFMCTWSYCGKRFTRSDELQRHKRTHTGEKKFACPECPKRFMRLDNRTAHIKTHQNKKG
Method in brief: as §1

ZFP SBS#693 = target: T22, ZFP SBS#693 (synthetic)
T22 chain: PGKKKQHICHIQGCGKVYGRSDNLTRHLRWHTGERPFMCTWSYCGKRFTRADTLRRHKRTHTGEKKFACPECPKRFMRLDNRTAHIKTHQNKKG
Method in brief: as §1

ZFP SBS#692 = target: T23, ZFP SBS#692 (synthetic, UniProt P08047)
T23 chain: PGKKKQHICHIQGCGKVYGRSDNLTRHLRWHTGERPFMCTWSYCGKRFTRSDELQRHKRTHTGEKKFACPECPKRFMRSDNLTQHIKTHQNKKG
Method in brief: as §1

Chain of ZFP SBS#600 (synthetic) (chain, as listed by the source): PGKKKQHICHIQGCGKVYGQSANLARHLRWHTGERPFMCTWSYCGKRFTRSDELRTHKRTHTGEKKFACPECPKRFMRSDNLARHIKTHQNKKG
Chain of ZFP SBS#427 (synthetic) (chain, as listed by the source): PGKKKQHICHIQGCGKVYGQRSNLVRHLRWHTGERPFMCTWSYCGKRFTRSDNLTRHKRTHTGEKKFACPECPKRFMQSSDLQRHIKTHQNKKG
Chain of ZFP SBS#426 (synthetic) (chain, as listed by the source): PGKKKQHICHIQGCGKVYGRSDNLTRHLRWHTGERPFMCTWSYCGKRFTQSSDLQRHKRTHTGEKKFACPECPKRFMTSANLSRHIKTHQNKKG
Chain of ZFP SBS#701 (synthetic) (chain, as listed by the source): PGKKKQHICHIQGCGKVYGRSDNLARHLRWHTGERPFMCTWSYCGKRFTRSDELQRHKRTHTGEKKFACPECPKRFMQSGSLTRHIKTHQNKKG
Chain of ZFP SBS#699 (synthetic) (chain, as listed by the source): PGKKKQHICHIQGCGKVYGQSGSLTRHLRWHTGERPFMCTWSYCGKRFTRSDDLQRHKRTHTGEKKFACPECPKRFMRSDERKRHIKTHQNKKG
Chain of ZFP SBS#374 (synthetic) (chain, as listed by the source): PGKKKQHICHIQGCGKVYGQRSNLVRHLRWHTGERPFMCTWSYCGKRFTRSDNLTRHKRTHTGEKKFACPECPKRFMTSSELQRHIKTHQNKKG
Chain of ZFP SBS#424 (synthetic) (chain, as listed by the source): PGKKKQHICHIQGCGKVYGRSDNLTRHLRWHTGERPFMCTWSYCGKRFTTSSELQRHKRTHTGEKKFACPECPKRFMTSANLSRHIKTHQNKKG
Chain of ZFP SBS#725 (synthetic) (chain, as listed by the source): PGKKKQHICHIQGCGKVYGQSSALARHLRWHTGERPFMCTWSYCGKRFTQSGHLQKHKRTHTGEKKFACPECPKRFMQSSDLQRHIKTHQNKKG
Chain of ZFP SBS#565 (synthetic) (chain, as listed by the source): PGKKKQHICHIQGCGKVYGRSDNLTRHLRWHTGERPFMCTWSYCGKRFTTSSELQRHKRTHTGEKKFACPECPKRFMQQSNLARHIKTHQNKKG
Chain of ZFP SBS#726 (synthetic) (chain, as listed by the source): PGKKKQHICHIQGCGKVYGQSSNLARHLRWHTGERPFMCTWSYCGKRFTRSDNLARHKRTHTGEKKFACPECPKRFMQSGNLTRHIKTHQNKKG
Chain of ZFP SBS#710 (synthetic) (chain, as listed by the source): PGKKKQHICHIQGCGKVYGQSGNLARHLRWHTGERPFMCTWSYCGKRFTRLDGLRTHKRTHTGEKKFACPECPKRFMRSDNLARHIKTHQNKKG
Chain of ZFP SBS#603 (synthetic) (chain, as listed by the source): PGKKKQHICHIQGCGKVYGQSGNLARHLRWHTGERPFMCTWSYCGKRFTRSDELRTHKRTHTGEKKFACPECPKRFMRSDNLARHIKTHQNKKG
Chain of ZFP SBS#731 (synthetic) (chain, as listed by the source): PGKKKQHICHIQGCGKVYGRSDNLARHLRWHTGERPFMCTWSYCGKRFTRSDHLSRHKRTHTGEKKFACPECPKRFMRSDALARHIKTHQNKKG
Chain of ZFP SBS#700 (synthetic) (chain, as listed by the source): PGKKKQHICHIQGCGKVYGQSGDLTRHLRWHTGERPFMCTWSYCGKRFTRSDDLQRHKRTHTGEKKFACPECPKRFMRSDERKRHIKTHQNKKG

B1: GGGGTGGGGC (dsDNA)
DNA 1: GGGGTGGGGC
DNA 2: GCCCCACCCC
Kd (ZFP SBS#706): 0.05 nM
Kd (ZFP SBS#705): 0.01 nM

B2: GATGCTGAG (dsDNA)
DNA 1: GATGCTGAG
DNA 2: CTCAGCATC
Kd (ZFP SBS#425): 25 nM
Kd (ZFP SBS#426): 5.5 nM
Kd (ZFP SBS#565): 100 nM
Kd (ZFP SBS#424): 100 nM

B3: GGCATGGTGG (dsDNA)
DNA 1: GGCATGGTGG
DNA 2: CCACCATGCC
Kd (ZFP SBS#724): 2.5 nM
Kd (ZFP SBS#719): 20 nM

B4: TGGGTCGCGG (dsDNA)
DNA 1: TGGGTCGCGG
DNA 2: CCGCGACCCA
Kd (ZFP SBS#714): 200 nM
Kd (ZFP SBS#715): 0.46 nM

B5: TGAGCGGCGG (dsDNA)
DNA 1: TGAGCGGCGG
DNA 2: CCGCCGCTCA
Kd (ZFP SBS#698): 300 nM
Kd (ZFP SBS#697): 200 nM

B6: ATGGGGGTGG (dsDNA)
DNA 1: ATGGGGGTGG
DNA 2: CCACCCCCAT
Kd (ZFP SBS#722): 0.7 nM

B7: GTGGGGGAGA (dsDNA)
DNA 1: GTGGGGGAGA
DNA 2: TCTCCCCCAC
Kd (ZFP SBS#731): 12 nM

B8: GAAGAGGATG (dsDNA)
DNA 1: GAAGAGGATG
DNA 2: CATCCTCTTC
Kd (ZFP SBS#720): 1.6 nM
Kd (ZFP SBS#726): 1.5 nM

B9: GCGGCGGCAG (dsDNA)
DNA 1: GCGGCGGCAG
DNA 2: CTGCCGCCGC
Kd (ZFP SBS#700): 45 nM
Kd (ZFP SBS#699): 21.5 nM

B10: GGGGGCGAGC (dsDNA)
DNA 1: GGGGGCGAGC
DNA 2: GCTCGCCCCC
Kd (ZFP SBS#695): 850 nM

B11: GAGTCGGAA (dsDNA)
DNA 1: GAGTCGGAA
DNA 2: TTCCGACTC
Kd (ZFP SBS#708): 300 nM
Kd (ZFP SBS#709): 400 nM
Kd (ZFP SBS#710): 400 nM
Kd (ZFP SBS#603): 167 nM
Kd (ZFP SBS#711): 400 nM
Kd (ZFP SBS#602): 617 nM
Kd (ZFP SBS#600): 207 nM
Kd (ZFP SBS#601): 607 nM

B12: GCAGCGGAGC (dsDNA)
DNA 1: GCAGCGGAGC
DNA 2: GCTCCGCTGC
Kd (ZFP SBS#702): 73.5 nM
Kd (ZFP SBS#701): 50.5 nM

B13: GCTTGAGTTA (dsDNA)
DNA 1: GCTTGAGTTA
DNA 2: TAACTCAAGC
Kd (ZFP SBS#725): 3000 nM

B14: GCTGAGGAA (dsDNA)
DNA 1: GCTGAGGAA
DNA 2: TTCCTCAGC
Kd (ZFP SBS#374): 3.3 nM
Kd (ZFP SBS#427): 1 nM

B15: TTGGGAGCAC (dsDNA)
DNA 1: TTGGGAGCAC
DNA 2: GTGCTCCCAA
Kd (ZFP SBS#717): 150 nM
Kd (ZFP SBS#718): 108 nM
Kd (ZFP SBS#716): 200 nM

B16: AAGGCGGAGA (dsDNA)
DNA 1: AAGGCGGAGA
DNA 2: TCTCCGCCTT
Kd (ZFP SBS#694): 28.5 nM
Kd (ZFP SBS#689): 82.5 nM
Kd (ZFP SBS#693): 95 nM
Kd (ZFP SBS#692): 51 nM
